Laboratory results reported in the nanobody polyreactivity screen of Harvey et al. (2022).

Assay: yeast display, Sf9 membrane polyspecificity reagent, FACS + sequencing; frameworks hold sequencing errors
Outline: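 In a synthetic yeast display library (Saccharomyces cerevisiae BJ5465), nanobody expression was induced with galactose for 36–48 hours. FACS gates were set low and high (top ~1%) using anti-HA fluorescence for expression and streptavidin fluorescence for binding of the Sf9 membrane reagent. Each polyreactivity label is drawn from the gate of origin.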

For “QVQLVESGGGLVQAGGSLRLSCAASGSIFFPYTMGWYRQAPGKERELVARISLGGGRTYYADSVKGRFTISRDNAKNTVYLQMNSLKPEDTAVYYCNRGGWYAYYWGQGTQVTVSS”, the “polyreactivity (PSR sort gate)” value was “high polyreactivity”.

In the case of “QVQLVESGGGLVQAGGSLRLSCAASGSIFFPYVMGWYRQAPGKERELVAAITYRAGSTYYADSVKGRFTISRDNAKNTVYLQMNSLKPEDTAVYYCAAVVSRSGEFGYWGQGTQVTVSS”, the “polyreactivity (PSR sort gate)” value is reported as “low polyreactivity”.

With “QVQLVESGGGLVQAGGSLRLSCAASGSIFFRNAMGWYRQAPGKERELVASITSGGSTYYADSVKGRFTISRDNAKNTVYLLMNSLKPEDTAVFYCAARLWHLSYAGQGGDYWGQGTQVTVSS” the “polyreactivity (PSR sort gate)” value was “low polyreactivity”.

In the case of “QVQLVESGGGLVQAGGSLRLSCAASGSIFFRYAMGWYRPAPGKERELVAAISSDGSTYYADSVKGRFTISRDNAKNTVYLQMNSLKPEDTAVYYCNAEQAIFYWYATVTYDYWGQGTQVTVSS”, the “polyreactivity (PSR sort gate)” value is reported as “low polyreactivity”.

With “QVQLVESGGGLVQAGGSLRLSCAASGSIFFSNAMGWYRQAPGKEREFVATITSSGVGTYYADSVKGRFTISRDNAKNTVYLQMNSLKPEDTAVDYCDADYNSQEDYWGQGTQVTVSS” the “polyreactivity (PSR sort gate)” value was “low polyreactivity”.

For “QVQLVESGGGLVQAGGSLRLSCAASGSIFFSYAMGWYRQAPGKERELVAAITSSVDSTYYADSVKGRFTISRDNAKNTVYLQMNSLKPEDTAVYYCDARYRSGYYRYDYWGQGTQVTVSS”, the “polyreactivity (PSR sort gate)” value was “low polyreactivity”.

In the case of “QVQLVESGGGLVQAGGSLRLSCAASGSIFFSYAMGWYRQAPGKERELVAGINWSGGSTYADSVKGRFTISRDNAKNPVYLQMNSLTPEDTAVYYCAAKYYSERSRYHYWGQGTQVTVSS”, the “polyreactivity (PSR sort gate)” value is reported as “low polyreactivity”.

For “QVQLVESGGGLVQAGGSLRLSCAASGSIFFSYAMGWYRQAPGKERELVAGINWSGGSTYADSVKGRFTISRDNAKNTVYLQMNSLKPEDTAVYYCAAKYYSERSRYHYWGQGTQVTVSS”, the “polyreactivity (PSR sort gate)” value was “low polyreactivity”.

For “QVQLVESGGGLVQAGGSLRLSCAASGSIFFTNVMGWYRQAPGKEREFVAAITGGGGSTYYADSVKGRFTISRDNAKNTVYLQMNSLKPEDTAVYYCATKAKPRSGYNYWGQGTQVTVSS”, the “polyreactivity (PSR sort gate)” value was “low polyreactivity”.

With “QVQLVESGGGLVQAGGSLRLSCAASGSIFFTYAMGWYRQAPGKERELVAVISSNGARTYYADSVKGRFTISRDNAKNTVYLQMNSLKPEDPAVYYCAARSQGNYGWGQGTQVTVSS” the “polyreactivity (PSR sort gate)” value was “high polyreactivity”.

For “QVQLVESGGGLVQAGGSLRLSCAASGSIFFVNAMGWYRQAPGKERELVAAITSGGNTNYADSVKGRFTISRDNAKNTVYFQMNSLKPEDTAVFYSATSYYLAYRSITTYDYWGQGTQVTVSS”, the “polyreactivity (PSR sort gate)” value was “low polyreactivity”.

With “QVQLVESGGGLVQAGGSLRLSCAASGSIFFWYTMGWYREAPGKERELVATITGSGSSTTYADSVKGRFTISRDNAKNTVYLQMNSLKPEDTAVYYCAAADIIDHSFPYDYWGQGTQVTVSS” the “polyreactivity (PSR sort gate)” value was “low polyreactivity”.

With “QVQLVESGGGLVQAGGSLRLSCAASGSIFFYAMGWYRQAPGKERELVAGITSGGSTYYADSVKGRFTISRDNAKNTVYLQMNSLKPEDTAVYYCAARRRGYKYTYNSWGQGTQVTVSS” the “polyreactivity (PSR sort gate)” value was “high polyreactivity”.

In the case of “QVQLVESGGGLVQAGGSLRLSCAASGSIFFYNAMGWYRQAPGKERELVAAISRGGNTNYADSVKGRFTISRDNAKNTVNLQLNSLKPEDTAVYYCNADYSFWATPYWEYGYDYWGQGTQVTVTS”, the “polyreactivity (PSR sort gate)” value is reported as “low polyreactivity”.

With “QVQLVESGGGLVQAGGSLRLSCAASGSIFFYYAMGWYRQAPGKERELVAAINSDGSTNYADSVKGRFTISRDNAKNTVFLQMNSLKPEDTAVYYCAAEWFPYRWGYGYWGQGTEVTVSS” the “polyreactivity (PSR sort gate)” value was “low polyreactivity”.

For “QVQLVESGGGLVQAGGSLRLSCAASGSIFFYYAMGWYRQAPGKERELVAAIRSGTSTNYADSVKGRFTISRDNAKNTVYLQMNSLKPEDTAVYYCAARFPGGGYGMDYWGQGTQVTVSS”, the “polyreactivity (PSR sort gate)” value was “low polyreactivity”.

With “QVQLVESGGGLVQAGGSLRLSCAASGSIFFYYSMGWYRQAPGKERELVAAISLSGGRTYYADSVKGRSTISRDNAKNTVYLQMNSLKPEDTAVYYCNAASLSGRGQSYHYHGYDYWGQGTQVTVSS” the “polyreactivity (PSR sort gate)” value was “high polyreactivity”.

With “QVQLVESGGGLVQAGGSLRLSCAASGSIFFYYTMGWYRQAPGKERELVAAISVGGSTYYADSVKGRFTISRDNAKNTVYLQMNSLKPEDTAVYYCNAVPAKGYVTVVRYYYWGQGTQVTVSS” the “polyreactivity (PSR sort gate)” value was “low polyreactivity”.

For “QVQLVESGGGLVQAGGSLRLSCAASGSIFGAYAMGRYRQAPGKERELVAAITSGGSTNYADSVKGRFTISRDNAKNTVYLQMNSLKPEDTADYYCAARRRYAKFRYDYWGQGTQVTVSS”, the “polyreactivity (PSR sort gate)” value was “high polyreactivity”.

In the case of “QVQLVESGGGLVQAGGSLRLSCAASGSIFGAYAMGWYRQAPGKERELVAAISGSGTSTYYADSVKGRFTISRDNAKNTVYLQMYSLKPEDTAVYYCAADGTYFYIYLGDRFDYWGQGTQVTVSS”, the “polyreactivity (PSR sort gate)” value is reported as “low polyreactivity”.

In the case of “QVQLVESGGGLVQAGGSLRLSCAASGSIFGAYAMGWYRQAPGKERELVAAITWRGGSTYYADSVKGRFTISRDNAKNTVYLQMNSLKPEDTAVYYCAARYLRPDGDALTRYGYWGQGTQVTVSS”, the “polyreactivity (PSR sort gate)” value is reported as “high polyreactivity”.

In the case of “QVQLVESGGGLVQAGGSLRLSCAASGSIFGAYAMGWYRQAPGKERELVAVISRSGGRTYYADSVKGRFTISRDNAKNTVYLQMNSLKPEDTAVYYCAASYPVPPYGMDYWGQGTQVTVSS”, the “polyreactivity (PSR sort gate)” value is reported as “high polyreactivity”.

In the case of “QVQLVESGGGLVQAGGSLRLSCAASGSIFGAYAMGWYRQAPGKESELVAVIRWGGGSTYADSVKGRFTISRDNAKNTVYLQMNSLKPEDTAVYYCNRDKSWADLYSHAYDYWGQGTQVTVSS”, the “polyreactivity (PSR sort gate)” value is reported as “low polyreactivity”.

With “QVQLVESGGGLVQAGGSLRLSCAASGSIFGAYTMGGYRQAPGKERELVAAITWSGGCTYYADSVKGRFTISRDNAKNTVYLQMNSLKPEDTAVYYCAAVFLRARYKYNYWGQGTQVTVSS” the “polyreactivity (PSR sort gate)” value was “high polyreactivity”.

In the case of “QVQLVESGGGLVQAGGSLRLSCAASGSIFGDYAMGWYRQAPGKERELVAAIRYIGVSTYYADSVKGRFTISRDNAKNTVYLQMNSLKPEDTAVYYCAAEVYYEYYYWRYYWGQGTQVTVSS”, the “polyreactivity (PSR sort gate)” value is reported as “high polyreactivity”.

In the case of “QVQLVESGGGLVQAGGSLRLSCAASGSIFGDYAMSWYRQAPGKERELVATITWIGGSTYYADSVKGRFTISRDNAKNTVYLQMNSLKPADTAVYYCAIYMGSYRLDYWGQGPQVTVSS”, the “polyreactivity (PSR sort gate)” value is reported as “low polyreactivity”.

For “QVQLVESGGGLVQAGGSLRLSCAASGSIFGDYVMGWYRQAPGKERELVAAINRGGSTYYADSVKARFTISRDNAKNTVYLQMNSLKPEDTAVYYCAAGYPSWYYGYPYDSWGQGTQVTVSS”, the “polyreactivity (PSR sort gate)” value was “low polyreactivity”.

For “QVQLVESGGGLVQAGGSLRLSCAASGSIFGENAMGWDRQAPGKERELVAAITSGGSTDYADSVKGRFTISRDNAKNTVYLQMNSLKPEDTAVYYCAASGRVGPGYWYDSWGQGTQVTVSS”, the “polyreactivity (PSR sort gate)” value was “low polyreactivity”.

In the case of “QVQLVESGGGLVQAGGSLRLSCAASGSIFGENAMGWYRQATGKERELVAAITWGGTSTYYADSVKGRYTISRDNAKNTVYLQMNSLKPEDTAVYYCNTPRYVRRQGVKRYDYWGQGTQVTVSS”, the “polyreactivity (PSR sort gate)” value is reported as “low polyreactivity”.

With “QVQLVESGGGLVQAGGSLRLSCAASGSIFGEYAMGWSRQAPGKERELVATIRQSGDSTYYADSVKGRFTISRDNAKNTVYLQMNSLKPEDTEVYYCADDLWLYDYYSEYDYWGQGTQVTVSS” the “polyreactivity (PSR sort gate)” value was “low polyreactivity”.

With “QVQLVESGGGLVQAGGSLRLSCAASGSIFGFNAMGWYRQAPGKEREFVAAISKSGGSTYYADSVKGRFTISCDNAKNTVYLQMNSLKPEDTAVYYCNAKSRHYEPYDYWGQGTQVTVSS” the “polyreactivity (PSR sort gate)” value was “high polyreactivity”.

In the case of “QVQLVESGGGLVQAGGSLRLSCAASGSIFGFNAMGWYRQAPGTERELVAAITWSGVSTYYADSVKGRFTISRDNAKNTVYLQMNSLKPEDTAVYYCAADVIIDWWYEMDYWGQGTQVTVSS”, the “polyreactivity (PSR sort gate)” value is reported as “high polyreactivity”.

In the case of “QVQLVESGGGLVQAGGSLRLSCAASGSIFGFNAMGWYRQARGKERELVAAINNGGSTNYADSVKGRFTISRDNAKNTVYLQMNSLKPEDTAVYYCAARLNYIRRGYWGQGTQVTVSS”, the “polyreactivity (PSR sort gate)” value is reported as “high polyreactivity”.

For “QVQLVESGGGLVQAGGSLRLSCAASGSIFGFNAMGWYSQAPGKEREMVAAINNGGSTNYADSVKGRFTISRDNAKNTVYLQMNSLKPEDTAVYYCAAVRFRPRRNEYWGQGTQVTVSS”, the “polyreactivity (PSR sort gate)” value was “high polyreactivity”.

For “QVQLVESGGGLVQAGGSLRLSCAASGSIFGFYAMGWYRQAPGKERELVAAITFSGGSTDYADSVKGRFTISRDNAKNTVYLQMNSLKPEDTAVYYCAARGYAIYSYWYYEPYDYWGQGTQVTVSS”, the “polyreactivity (PSR sort gate)” value was “high polyreactivity”.

For “QVQLVESGGGLVQAGGSLRLSCAASGSIFGFYAMGWYRQAPGKERELVAGISYGDSSTYYADSVKGRFTISRDNAKNTVYLQMNSLKPEDTAVYYCAAGHRQKYNWGRYDYWGQGTQVTVSS”, the “polyreactivity (PSR sort gate)” value was “low polyreactivity”.

For “QVQLVESGGGLVQAGGSLRLSCAASGSIFGGNAMGWYRQAPGKERELVATIDFSGTSTYYADSVKGRFTISRDNAKITVYLQMNSLKPEDTAVYYCAVRSGYVNRRYDYWGQGTQVTVSS”, the “polyreactivity (PSR sort gate)” value was “low polyreactivity”.

In the case of “QVQLVESGGGLVQAGGSLRLSCAASGSIFGGYAMGWYRPAPGKERELVASITKSGDSTYADSVKGRFTISRDNAKNTVYLQMNSLKPEDTAVYDCAADSTFGKFEYWGQGTQVTVSS”, the “polyreactivity (PSR sort gate)” value is reported as “low polyreactivity”.

For “QVQLVESGGGLVQAGGSLRLSCAASGSIFGGYAMGWYRQAPGKERELVAAISSGGSTYYADSVKGRFTISRDNAKNTVYLQMNSLKPEDTAVYYCATSTYAYRRNSYDYTRPRFGYWGQGTQVTVSS”, the “polyreactivity (PSR sort gate)” value was “high polyreactivity”.

In the case of “QVQLVESGGGLVQAGGSLRLSCAASGSIFGGYAMGWYRQAPGKERELVAAISVSDDITYYADSVKGRFTISRDNAKNTVYLQMNSLKPEDTAVYYCAAEPDTNYVVRYDYWGQGTQVTVSS”, the “polyreactivity (PSR sort gate)” value is reported as “high polyreactivity”.

In the case of “QVQLVESGGGLVQAGGSLRLSCAASGSIFGGYTMGWSRQAPGKERELVAGITISGGSTYYADSVKGRFTISRDNAKNTVYLQMNSLKPEDTAVYYCAAVSFVVSSWGYGYWGQGTQVTVSS”, the “polyreactivity (PSR sort gate)” value is reported as “low polyreactivity”.

For “QVQLVESGGGLVQAGGSLRLSCAASGSIFGGYTMGWYRQAPGKERELVAAISARGGNTYYADSVKGRFTISRDNAKNTVYLQMNSLKPEDTAVYYCAKVRYTQSYRVYGYWGQGTQVTVSS”, the “polyreactivity (PSR sort gate)” value was “high polyreactivity”.

In the case of “QVQLVESGGGLVQAGGSLRLSCAASGSIFGINAMGWYRQAPGKERELVAAITWSGGSTFYADSVKGRFTISRDNAKNTVYLQMTRLKPEDTAVYYCAADSGREPKGPSRLTYWGQGTQVTVSS”, the “polyreactivity (PSR sort gate)” value is reported as “high polyreactivity”.
